We go through one molecule from patent US20160206715A1.

The target of this assay is T1, rMuIL15Ra (murine IL-15 receptor R&D Systems) (murine), Q60819.
T1 chain: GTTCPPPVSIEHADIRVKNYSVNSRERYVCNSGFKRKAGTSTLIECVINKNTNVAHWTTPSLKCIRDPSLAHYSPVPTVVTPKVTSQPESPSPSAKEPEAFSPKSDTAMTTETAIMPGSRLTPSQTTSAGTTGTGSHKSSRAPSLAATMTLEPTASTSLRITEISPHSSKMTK
The assay can be described thus: BLI (ForteBio), biotinylated rMuIL15Ra on SA biosensors, rMuIL15 in solution, 1:1 fit. The conditions noted are these: remark: other sources report otherwise.

B1: rMuIL15 (R&D Systems), P48346 49-162 (ligand, murine, UniProt P48346 49-162, looked up)
chain: NWIDVRYDLEKIESLIQSIHIDTTLYTDSDFHPSCKVTAMNCFLLELQVILHEYSNMTLNETVRNVLYLANSTLSSNKNVAESGCKECEELEEKTFTEFLQSFIRIVQMFINTS
modifications: here or on the partner: biotinylated with EZ-Link NHS-LC-Biotin (sites not given)
Broadly, the Kd is the constant that tells how readily two partners part at equilibrium. Low values mean a tighter complex, high ones a looser complex. Molecule B1 displayed a Kd of 5.57 nM. That is a single-digit nanomolar value.
